Reference: article PMC5556678 (Structure (London, England : 1993), 2017)
“And” between values parts separate entries of the source, which are not always exact repeats. Identical values can stand only once.

Assays:
BanLec D38G = assay: native MS
BanLec Y46K = assay: native MS
BanLec D133G = assay: native MS
BanLec [1] = target: BanLec (Musa acuminata, UniProt O22321); assay: HPLC depletion assay of released gp120; format: binding; settings: 2-AB labelled gp120 N-glycans, 0-50 μM BanLec
BanLec [2] = target: BanLec (UniProt Q8L5H4); assay: SEC-MALS
BanLec [3] = target: BanLec (UniProt Q8L5H4); assay: native MS
BanLec [4] = target: BanLec (UniProt Q8L5H4); assay: ion mobility MS
BanLec [5] = target: BanLec (UniProt Q8L5H4); assay: SAXS
BG505 SOSIP.664 = assay: Negative-stain electron microscopy of BanLec with soluble Env trimer mimic; set-up: species or system HIV; settings: incubation of BanLec with BG505 SOSIP.664
HIV fusion to HeLa cells = settings: ref Swanson et al., 2010; cited from earlier work

BanLec D38G (natural protein)
stoichiometry N (BanLec D38G): 4

BanLec Y46K (natural protein)
stoichiometry N (BanLec Y46K): 2 and 4

BanLec D133G (natural protein)
stoichiometry N (BanLec D133G): 4

Man5
depletion of glycan upon addition of BanLec (BanLec [1]): not depleted

CC(=O)N[C@H]1[C@H](O[C@H]2[C@H](O)[C@@H](NC(C)=O)C(O)O[C@@H]2CO)O[C@H](CO)[C@@H](O[C@@H]2O[C@H](CO[C@H]3O[C@H](CO[C@H]4O[C@H](CO)[C@@H](O)[C@H](O)[C@@H]4O[C@H]4O[C@H](CO)[C@@H](O)[C@H](O)[C@@H]4O)[C@@H](O)[C@H](O[C@H]4O[C@H](CO)[C@@H](O)[C@H](O)[C@@H]4O[C@H]4O[C@H](CO)[C@@H](O)[C@H](O)[C@@H]4O)[C@@H]3O)[C@@H](O)[C@H](O[C@H]3O[C@H](CO)[C@@H](O)[C@H](O)[C@@H]3O[C@H]3O[C@H](CO)[C@@H](O)[C@H](O)[C@@H]3O[C@H]3O[C@H](CO)[C@@H](O)[C@H](O)[C@@H]3O)[C@@H]2O)[C@@H]1O (some centres unmarked) [Man9]
depletion of glycan upon addition of BanLec (BanLec [1]): decreased considerably

BanLec (from UniProt Q8L5H4 1-141) (natural protein)
stoichiometry N (BanLec [2]): 4 | stoichiometry N (BanLec [3]): 4 | stoichiometry N (BanLec [4]): 4 | stoichiometry N (BanLec [5]): 4

B1: BanLec: recombinant tetrameric plant (banana) lectin with anti-HIV activity, expressed in E. coli (protein)
chain: MNGAIKVGAWGGNGGSAFDMGPAYRIISVKIFSGDVVDAVDVTFTYYGKTETRHFGGSGGTPHEIVLQEGEYLVGMKGEFGNYHGVVVVGKLGFSTNKKSYGPFGNTGGTPFSLPIAAGKISGFFGRGGDFIDAIGVYLEP
modifications: left off: polyhistidine tag, N-terminal, cleaved
effect on soluble Env trimer mimic by negative-stain EM (BG505 SOSIP.664): aggregation | IC50, inhibition of HIV fusion to HeLa cells (HIV fusion to HeLa cells): low-nanomolar range
